Results from publication PMC3448794 (Biochemistry, 2012).

T1: human L-asparaginase (hASNase3), cleaved state (alpha- and beta-chains) (human, UniProt Q7L266 1-167; Q7L266 168-308)
T1 sequence (looked up) 1: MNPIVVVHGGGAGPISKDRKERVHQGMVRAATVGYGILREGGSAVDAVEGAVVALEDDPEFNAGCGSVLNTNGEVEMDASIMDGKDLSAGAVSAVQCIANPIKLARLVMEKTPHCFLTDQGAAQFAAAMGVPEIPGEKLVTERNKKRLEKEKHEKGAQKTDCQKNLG
T1 sequence (looked up) 2: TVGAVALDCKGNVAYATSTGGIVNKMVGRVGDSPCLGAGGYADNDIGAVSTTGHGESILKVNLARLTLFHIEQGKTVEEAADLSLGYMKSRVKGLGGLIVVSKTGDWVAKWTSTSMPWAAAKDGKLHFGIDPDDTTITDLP

T2: alpha-chain of cleaved human L-asparaginase (hASNase3) (human, UniProt Q7L266 1-167)
T2 sequence (looked up): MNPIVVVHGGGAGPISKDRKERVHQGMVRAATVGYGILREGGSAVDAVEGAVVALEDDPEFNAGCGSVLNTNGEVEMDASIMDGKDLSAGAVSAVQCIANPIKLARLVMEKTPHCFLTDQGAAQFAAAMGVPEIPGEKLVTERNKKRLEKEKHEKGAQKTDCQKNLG


How the values were obtained:
[1] = biological target: T1, human L-asparaginase (hASNase3), …; experiment: crystal structure
[2] = biological target: T2, alpha-chain of cleaved human …; experiment: crystal structure

Row | Binder | binding result [1] | binding result [2]
1 | human L-asparaginase (hASNase3), uncleaved state (enzyme, UniProt Q7L266 1-308, looked up) MNPIVVVHGGGAGPISKDRKERVHQGMVRAATVGYGILREGGSAVDAVEGAVVALEDDPEFNAGCGSVLNTNGEVEMDASIMDGKDLSAGAVSAVQCIANPIKLARLVMEKTPHCFLTDQGAAQFAAAMGVPEIPGEKLVTERNKKRLEKEKHEKGAQKTDCQKNLGTVGAVALDCKGNVAYATSTGGIVNKMVGRVGDSPCLGAGGYADNDIGAVSTTGHGESILKVNLARLTLFHIEQGKTVEEAADLSLGYMKSRVKGLGGLIVVSKTGDWVAKWTSTSMPWAAAKDGKLHFGIDPDDTTITDLP | binds | –
2 | beta-chain of cleaved human L-asparaginase (hASNase3) (domain or fragment, UniProt Q7L266 168-308, looked up) TVGAVALDCKGNVAYATSTGGIVNKMVGRVGDSPCLGAGGYADNDIGAVSTTGHGESILKVNLARLTLFHIEQGKTVEEAADLSLGYMKSRVKGLGGLIVVSKTGDWVAKWTSTSMPWAAAKDGKLHFGIDPDDTTITDLP | – | binds
